Assays:
[1] = Mouse body weight analysis; format: in vivo; conditions: day 0 vs 2 days after injection, RLuc8.6 100 mg/kg, AADC-IKVAV 250 mg/kg
Experimental: To assess the potential impact of the RAID approach on the body weight of the mice involved in behavior analysis (n=11 mice for the FUS alone+L-DOPA group and n=14 mice for the FUS+AADC-IKVAV (SEQ ID NO: 23)+L-DOPA group), their body weight was recorded on a daily basis before and after FUS-BBBO administration. […] The body weight of the additional group of mice was also recorded in a similar manner; however, unintentionally four mice were omitted from weighing on the day following the AADC-IKVAV (SEQ ID NO: 23) injection. Similarly, the mouse body weight was recorded before and after the intravenous injection of unmodified or engineered RLuc8.6, which is related to the study presented in FIG. 5.

[2] = AADC immunostaining, AADC-IKVAV retention and spatial targeting after FUS-BBBO; format: in vivo, mouse; conditions: for local AADC levels (AADC+ pixels) in FUS-targeted region vs FUS alone control group: 250 mg/kg i.v., one FUS site left CPu, 2 days
Experimental: c-Fos […] injection of recombinant protein AADC-IKVAV (SEQ ID NO: 23) (20 mg/mL, 250 mg/kg) or equivalent volume of PBS buffer (n=5 mice for FUS alone+L-DOPA group). After 48 h, the mice were given a single dose of L-DOPA (0.1 mg/mL, 2 mg/kg, i.p.; Spectrum Chemical) 10 min after injection of carbidopa (1 mg/mL, 25 mg/kg, i.p.; Sigma-Aldrich), both of which were dissolved in sterile saline containing 2.5 and 0.125 mg/mL ascorbic acid. […] After 2 hours, the mice were euthanized by transcardial perfusion, and their brains were extracted and sliced into 50 μm coronal sections following 24-48 hours of fixation.
Immunostaining of AADC was performed as follows: (1) incubate the brain sections in 1× antigen retrieval solution (catalog number: 00-4955-58; Invitrogen) overnight in a 60° C. water bath; (2) block sections in 5% normal goat serum (SouthernBiotech) and 0.3% Triton-X solution in PBS for 1 h at room temperature; (3) incubate with primary rabbit anti-AADC antibody (1:500, 10166-1-AP, Proteintech) for staining AADC-IKVAV (SEQ ID NO: 23) in blocking buffer for 2 h at room temperature; (4) after washing three times in PBS (15 min each, the same as below), incubate with secondary goat anti-rabbit antibody conjugated to Alexa Fluor 647 (1:750, A-21245, ThermoFisher) in blocking buffer for 2 h at room temperature; (5) after washing three times, mount sections onto glass slides using the mounting media (Vector Laboratories) with DAPI and air-dry overnight in dark before imaging.
To analyze AADC-IKVAV (SEQ ID NO: 23) retention, as depicted in FIG. 7 and FIG. 11, stained coronal sections within the striatum were captured using a ×4 objective in DAPI (nuclei, not shown) and far-red (AADC) channels. Among these sections, the one displaying the most intense AADC fluorescence was chosen as the representative for each mouse. Subsequently, the selected sections were further examined at a higher magnification (×40 objective) for quantitative comparison. […] This area was imaged using a ×40 objective. Additionally, corresponding contralateral areas in the right striatum were also imaged.
To quantify the AADC-IKVAV (SEQ ID NO: 23) retention in the FUS targeted region, as shown in FIG. 7 and FIG. 11, the histological images were analyzed using ImageJ (version 1.53t). Specifically, the average pixel intensity of the AADC-IKVAV (SEQ ID NO: 23) channel image captured on the contralateral side of each representative section was calculated to establish the background for that section.
Immediately afterwards, the mice were sacrificed for immunohistochemical analysis of AADC-IKVAV (SEQ ID NO: 23) retention as already mentioned. The section displaying the strongest AADC fluorescence was selected as the representative for each mouse, and its adjacent section was stained separately to identify c-Fos positive cells. […]

GFAP+ astrocytes = test: Safety analysis, GFAP staining for astrocytic activation; format: in vivo, mouse; conditions: RAID treatment, FUS+AADC-IKVAV
Description: Additionally, the brain sections stained for GFAP were imaged using a 4× objective in DAPI (nuclei) and far-red (GFAP) channels. Three square areas were then selected in both the left and right striatum respectively, each with 3×3 binning, for imaging with a 40× objective to quantify GFAP+ cells.
In FIG. 7, we applied the following brightness (white) thresholds for the corresponding channels: 6045 (DAPI, nuclei, not shown), 15,000 (Cy3, D1R), 16,000 (green, D2R), and 6045 (far-red, c-Fos), with a gamma value of 1. In FIG. 11, we applied a Brightness (White) threshold of 6045 for both DAPI (nuclei, not shown) and far-red (c-Fos) channels, with a Gamma value of 1. The images were then overlayed, and the c-Fos+ cells were manually counted. Similarly, the GFAP+ cells were manually counted, as shown in FIG. 15c and FIG. 17, by applying a Brightness (White) threshold of 5686 and a Gamma value of 1 for both the DAPI (nuclei) and far-red (GFAP, purple) channels.
Adjacent sections were stained separately with an anti-GFAP antibody to examine astrocytic activation. […]

[3] = behavior study, FUS+AADC-IKVAV+L-DOPA, two FUS sites

B1: AADC-IKVAV: aromatic-L-amino-acid decarboxylase (AADC) protein fused with short peptide IKVAV (SEQ ID NO: 23); CDS SEQ ID NO: 21 (protein)
chain: MRGSHHHHHHGMASMTGGQQMGRDLYDDDDKDPMNASEFRRRGKEMVDYMANYMEGIEGRQVYPDVEPGYLRPLIPAAAPQEPDTFEDIINDVEKIIMPGVTHWHSPYFFAYFPTASSYPAMLADMLCGAIGCIGFSWAASPACTELETVMMDWLGKMLELPKAFLNEKAGEGGGVIQGSASEATLVALLAARTKVIHRLQAASPELTQAAIMEKLVAYSSDQAHSSVERAGLIGGVKLKAIPSDGNFAMRASALQEALERDKAAGLIPFFMVATLGTTTCCSFDNLLEVGPICNKEDIWLHVDAAYAGSAFICPEFRHLLNGVEFADSFNFNPHKWLLVNFDCSAMWVKKRTDLTGAFRLDPTYLKHSHQDSGLITDYRHWQIPLGRRFRSLKMWFVFRMYGVKGLQAYIRKHVQLSHEFESLVRQDPRFEICVEVILGLVCFRLKGSNKVNEALLQRINSAKKIHLVPCHLRDKFVLRFAICSRTVESAHVQRAWEHIKELAADVLRAEREGGSGSSGGSGGSGGSGIKVAV
modifications: misc_feature 1..1602 Synthetic: AADC-IKVAV
Weight loss ([1]; FUS-BBBO + protein i.v., RLuc8.6-IKVAV 104 mg/kg): 10.3±0.5%
Weight loss ([1]; protein i.v. alone without FUS): 13.8±0.8%
local AADC levels (AADC+ pixels) in FUS-targeted region vs FUS alone control group ([2]; with subsequent L-DOPA 2 mg/kg i.p.): 38.5 (±6.1) fold
local AADC levels (AADC+ pixels) in FUS-targeted region vs FUS alone control group ([2]; without L-DOPA): 41.8 (±8.9) fold
mice with detectable retention within the CPu ([2]; 11 mice receiving AADC-IKVAV): 73%
levels of local AADC (AADC+ pixels, left CPu) vs FUS alone group [2, 3]: 13.3 (±2.8) fold
levels of local AADC (AADC+ pixels, left CPu) vs untreated group [2, 3]: 93.3(±19.5) fold
presence of delivered enzyme in the FUS-targeted area by immunostaining ([2]; behavior study, two FUS sites, 2 days after delivery): present in the FUS-targeted area in all mice
mice with efficient retention within 100 μm of the CPu ([2]; remaining mice of 11): 27%
numbers of GFAP+ astrocytes in targeted area vs contralateral site (GFAP+ astrocytes): did not affect
